# Reference: the domain aggregation screens of Martell et al. (2025)
# Test: soluble fraction after stress (log2 fold change); higher = more stays soluble; pooled small domains, quantitative proteomics
# Settings: stress: 50 degC
# How it was run: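 The stress applied to every library was 50°C. These custom libraries of small protein domains were pooled and measured at high throughput with quantitative proteomics as the read-out. Aggregation propensity is expressed as the base-two logarithm of the fold change in how much of each protein remains soluble. The higher the value, the more of that protein stays in solution.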
row,Sequence,soluble fraction (log2)
1,HMVLSTRERMSNILATLKGGHFVNFSDLFTPEEGRLGVVVTFLAMLELIKESLLDIVQHEVLGPIHVKARV,-0.0744
2,HMGKQIKEIVEEYYDSTSKNSPVGGSWKTSLDGVDLTSPNITIWTRTKIKYVDGSESIVTPQSL,-0.0357
3,HMTGTVKVNSLNVYKSASLDSEVKDTLVLNTKVTIAENGQVTDGIYVWGRLQSGEGYVQMNNLTL,-0.687
4,HMEVTLEEKLSYVEEYAKVHSHFSFRDLLKKQASKTQIVVTFLAILELMKTGKIQITQEHIFDDIVITAK,-0.0755
5,HMKMAKTIKEIAEEIGVSKQAVFKKIKQVPLSTEIEKFISTVDGKKLVSVDGENLIKQAFQR,0.325
6,HMSTDSTQLLGFNKTGEELPIYKEANEENKFAEIPQNVYVKNFGQNGEFTKIKYLDQEGYVKTAGLK,≥ 0.62
7,HMSSSTFVGRVAVITIGEARQNSPAEARFKDRHGTTHYVMVEPMEDVVFKQGDKVLLVESAGATFKVIEPA,-0.585
8,HMPSLSPDETVVVDALRQQNDMQINMISVKTNLPIARLSAILFEMELKGVLKPLAGGVYHLL,-0.316
9,HMKVDRLISIVLVLLDKNRISAQELADMFEVSLRTIYRDIDAIELAGIPIRSTSGVGGGFEIMPNY,-0.577
10,HMNLSPADFSSVRNALGLSLSTVAKESGINRNYLSNFEKKKHFLEETAKVKLRDYYMSIDPDAFAAAL,-0.177
11,HMSEKYPPIDWNNIKTGQSVLIKDINQVVSLTKLPDSKGFAEVQMGLIKTKIKAEKLAATDKKPNK,0.0917
12,HMSNSWSYSEFMKAVESGQVESVTISGQSIKGTSRGGQAFESVLPAFDDKLMDTLLVNDVEVIGEKP,-0.00195
13,HMTPVYLNARQKQILAFLKREEPAKVGDIAHALKTISINTLKKDLLYLRQKNLIESHGVLKGTIYTVK,-1.41
14,HMGNTMIVILKHEARQEQIDRLKQFLLGMGLRIDESKGENSTILGLVGDTTRVDADLISSLDAVEAVRRV,-0.0449
15,HMEAADAGTLAQRAAQYFNEKNYAAALDALERRAAMAPETTELRMMRGWSLLHLNRKDEARNAFATLG,-0.0562
16,HMDLYEILGVRRGAGGGEIRRAYRRLARRYHPDVNPGDREAQARYALITRAFETLNDPERRRAYDAGVP,-0.34
17,HMEFDYIVKVPDVRNKKIEDAGKILIDLGLKYTTESDYITQDLKVIDQFPLPGTEVSKGSIIDIYLEEDFK,0.0944
18,HMKIPQFAVIKQYLEQQIKTAQWAPGRQIPTEQSLADTFSVSRMTARRAVQQLADAGLLERTQGSGTFVAD,-0.145
19,HMQLTPAQHAILAKAIHSSDGKIEWFPDNVKGGARKKVLEGMFNRALITPDGEGWRIAAEGYDALGMPRP,-0.0604
20,HMFRSNAERAAHLASALPRAEAELAALQARGAATSENIYLRSSYFDALRYTEELRAAKRAQDALQGA,0.0735
21,HMKLRSIQEQVQYLEKVDNQKAMQIILNMNDKASAVQILRNMKKEKAAAILAQMDPLQAAQILEDLA,0.0608
22,HMISIKEAVFPFSRFPGVDTLLGPEMKSTGEVMGLADNFGHAYAKSQIASGSKLPESGTLFVSVKNSD,-0.309
23,HMASDQGAGALREVSAFFEKHGRVPDPDAVDHDEMRLGSIWASIKSAPTDQMRLEDRFGLLD,0.1

row,Sequence,soluble fraction (log2)
1,HMLDKRSHAKKVLDAIEAVILGRATNDQLAYTINGRSLQKTPLPDLLRLRSQYQAEYQRELRAERIRKG,-0.131
2,HMKVTGSVQKKKGYYYIVVRLPTKNGTQYEQKQKWFNTKLKATPRNKTAAQVILAEKLTEYGGIV,-2.8
3,HMYAGTVTQVKNNKVMLEFDGETVNVGDQFFILNSDGKKVAIVEITAAKNKKALANVLKGKAVVDGTTQAK,-0.111
4,HMFIRINQTQNSPRKSVQIVESKRDGHKVRTKILRHVGIAMDDVELQKLKSLAQDIIAKMTVETENASKQ,-0.00422
5,HMAELNLPVRKIGGEDYYYRQVKKKETIYGISKELGITKEDIIKYNPSVASGLQRNQILYFPVKDFK,-0.0957
6,HMLTLTNREKQVLVYIAKGHQVAQIAYELKLSGHTINGYIKTIYQKLHISSRAEAALLAQQYGL,-3.56
7,HMPKPMKATKITLQQEPRIRVDFTYDPLKVQQIKTISGARWSKSLKAWHIPYTKEAFNQLKKLFPNVEIEV,-0.166
8,HMTIDETKKQQVKDGLKDIPGVTVEFVGDKAVLKGAVTDANRVKIMQIVMAAKVLSDASGLTSK,-0.11
9,HMSLPDREVVLETSSDSYYHFKTDHFQRQITYSAVRNAPVRLVTISAERAFEVISLNRRGERPEHLE,-3.53
10,HMLNEWIDYIDEHIKEELTAKNLATVFGYSERHFRNVFQIYYDIKLNDYIRRRKLYFAAQELKKG,-1.17
11,HMGLSENALAMLKQQETVLIRLIDGRGNQGALASINLIVSRILNLDIVDRTPEDLLRVIASEGEQND,-3.78
12,HMSLNIIEITAKKEINELKSFNIIYFNFDKNNSIYEYKISEREKKEILEIEKIIKNSDNVTNYEIRYSF,-0.52
13,HMGIDRPLFTLAQFARQIGEQVKISLSLPQDGRRRLQGKVLSVGESGIVLDVDGREFTVAIGNVDKARL,-1.24
14,HMRKIKEVLRLKFETGFSHERIAAAVGVSKGAVTKYVQRAVAAGLGWPLAPERDDAALEALLFPH,≥ 0.62
15,HMGSWDDFFNAIRLDNPNTLQALLQRGFDPNTVDQQGTPALMRALQEQSYRAAEVLADHPQI,-0.459
16,HMDVPTEEAILAYNNVPIELAAKFIGWSDITIRYALQEERAPFGMAAQNPKTGTWSYNISPGLLLKYKSGE,-2.11
17,HMRRGPLTPDDFVLDMRVVHPRYGVGRIVALSGSGESRKATVDFGGSIGRMKFVLSQSPLKP,-0.414
18,HMLEPGIAVLKTLMSQYRLGVADLPELGSKSNVSKLLNAVEGKKLTRQHIEALSKRFAVSPALF,-0.195
19,HMSKASLFFLFNHKDELYIVDNNHVQDVPKPRELIRRFSTIEQIREHALHLGLPIANDTARE,-0.723
20,HMNAPKKPLSAYFLFSQEERLKVKAENPDYSITEVAKELGKRWATLNPDIKTVYEQRYQDARRIYETEMNT,-0.303
21,HMDRRFFVAEENYKRLDVFLSERMEEFTRSRIKKLIDEGHVELNGKSAKAGAEIRPGDEVAAEIPEVKE,0.147
22,HMINVGYKFKQIRENAGLTLKQVSAMSGLSVSFISQIERGVVDPSWSSLKKISAALNIKLKDLF,-1.78
23,HMENRILIPTAENIGERLDRYISSELDAPRSQVQIWIDSGLVAVSGGLKPKNYRLREGDEIEVTIPDPV,0.0407

row,Sequence,soluble fraction (log2)
1,HMGSFFSKATAPVRTTGGDGLYKHGSIWFNTSTGRLFVYIPDDRYTGLLDTHNGDIGYWVDVS,-2.2
2,HMNGQFIELKNTTGTIIEARVLSFQNGKVKLQRNDGLIFVASISIFDSESIEVIKQKVAEISESKKS,-0.224
3,HMVNPIDFYLLFRTELQRLAEHPITVDRLTEVTGLNKLQVLDWLKRAEQDGLVKKLNRPTRYQLN,-0.0401
4,HMLTRQNFHGIKLPTIHEYIDLLNSRVNANIDKTNNWQSSVSHLRTYLNSHNINAVSKESINNYIDERLN,-0.572
5,HMAEWIYGKNVVKQSIEEGMVLKLILQRKEDPLFVLAQEKQIPVEILDRHKMTSLVKSDRHQGVAAQI,-0.477
6,HMDLFREERRQAILDWLATAGRVSVAELSASFGVSEVTVRADLQALADRRLVVRTHGGAMMAG,-1.43
7,HMGYTPGVVIQKSAILEEINQPDLALGMMLEAVKKDSQNLDILNRLVTLLIDQKKNEDAEIYNKKIIT,0.0254
8,HMDHKSQLQEWAQSTLGETPRYVTIAETGPDHDKELTVELIIGRKSYSIAKGKSKKQAEQSAARIALGLLM,-0.653
9,HMNNSVAYSTFLNDIRTNTLKDVDMTSNSETINVTKKDGTKYQTVMPMYDRDLLADLSKTDATVTGQP,0.28
10,HMADENIELRKAGLKVTLPRVKILQILEAAKEPHMSAEDVYKALMEANEEVGLATVYRVLTQFESAGL,-0.267
11,HMNNYNDSVQKIINYIADNLNENLSVRKLADKMPMSVSHFNRVFQKYTGDSPYAYVMAMRIKKAKYL,0.0162
12,HMEEKTMNLPPSAKLVYKILSYEGNLTQKEIINMTYLPERTVRHALELLLGKRLITRQAYLNDARQSVYG,-1.66
13,HMTTTTTYITNTDAVNIRQQATTSSTSLGKLAKNTILSVKKKSGDWYQITYKKQTAYIHASLVDKKTAKVT,-0.556
14,HMFPTLSPEEQRIVDQLAKENDLQANVIALRTALTIPQISALLFSLEMKGMVRLYAGGTYHLI,-2.81
15,HMAEPLEIGDTVRIIDGFYGGEIGVISELVNPDAKNAEFEQVRVRLDQDTELALPIHNVERVRL,0.25
16,HMPVFYATNRQKTTIHNLKRKKGLDDDAYRATIYSFTHGRTDSSKYMYKYEAAELIQKWLDPE,-1.7
17,HMRGQGRILAMLKIQPEIATKDLAYLLGIRQQSLNELLKKLEKNSYVERRPSEKDRRVMVVHLTEKGKE,-0.715
18,HMTVSRRYTENEMETALKAYLATHNFISRRDMQQEFALTIYSARKWLNHFVDVGLIERIGLKNAPIYKL,-0.4
19,HMVPLSMLTEGQIFRGQVLDITSQGIKIQLNPEQILFARLGEQVELNIGQQMAFQVRENKGDQLIIHPMQN,0.0382
20,HMHSDWITWWYLKDKRFDDDYSLWDRQPVHPEYFEVVKEFKAPPESNPGGLDEVKRILRTYIPDAFAP,-0.976
21,HMSGRIWTDNYGRTIEADVIKVNINRTVLLEFTDKKTKTVSFDTFISKDIQYLEYLLTRRNRGKL,-3.9
22,HMRFNIGNVIEHYKLNTEDLAKVLFPTVKYPKQAFDRVLKGEANLDVIQLERLANHIGVLVTDLF,-0.196
23,HMGETDDDFRELEEFVEKTKFDKLGTFMYSKEEGTPAARLPEQIHGNTKKSRYNKIMSIQQKVSNEN,-0.0112
